According to PMC6944378, “Ecotin, a microbial inhibitor of serine proteases, blocks multiple complement dependent and independent microbicidal activities of human serum” (PLoS Pathogens, 2019):

How the values were obtained:
[1] = target: T1, MASP-3 catalytic fragment (CCP1-CCP2-SP) (UniProt P48740-2 299-728); test: […]; 20 mM HEPES, 145 mM NaCl, 5 mM CaCl2, 0.05% Triton X-100, pH 7.5; […]; details: both partners purified
T1 sequence: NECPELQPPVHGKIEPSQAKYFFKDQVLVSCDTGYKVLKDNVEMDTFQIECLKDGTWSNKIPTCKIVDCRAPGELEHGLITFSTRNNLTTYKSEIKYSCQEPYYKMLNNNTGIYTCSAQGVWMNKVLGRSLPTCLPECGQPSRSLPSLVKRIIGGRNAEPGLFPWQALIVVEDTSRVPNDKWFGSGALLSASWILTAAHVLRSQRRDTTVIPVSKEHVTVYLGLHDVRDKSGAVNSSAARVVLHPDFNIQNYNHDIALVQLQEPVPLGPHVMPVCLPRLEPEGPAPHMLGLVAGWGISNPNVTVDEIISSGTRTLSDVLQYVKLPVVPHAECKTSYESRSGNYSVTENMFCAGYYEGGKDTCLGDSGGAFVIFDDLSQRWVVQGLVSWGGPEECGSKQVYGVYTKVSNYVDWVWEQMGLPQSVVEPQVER

[2] = target: T2, MASP-1 catalytic fragment (CCP1-CCP2-SP) (UniProt P48740 299-699); test: as above; details: both partners purified
T2 construct: MASP-1, active catalytic fragment containing the CCP1-CCP2-SP domains
T2 sequence: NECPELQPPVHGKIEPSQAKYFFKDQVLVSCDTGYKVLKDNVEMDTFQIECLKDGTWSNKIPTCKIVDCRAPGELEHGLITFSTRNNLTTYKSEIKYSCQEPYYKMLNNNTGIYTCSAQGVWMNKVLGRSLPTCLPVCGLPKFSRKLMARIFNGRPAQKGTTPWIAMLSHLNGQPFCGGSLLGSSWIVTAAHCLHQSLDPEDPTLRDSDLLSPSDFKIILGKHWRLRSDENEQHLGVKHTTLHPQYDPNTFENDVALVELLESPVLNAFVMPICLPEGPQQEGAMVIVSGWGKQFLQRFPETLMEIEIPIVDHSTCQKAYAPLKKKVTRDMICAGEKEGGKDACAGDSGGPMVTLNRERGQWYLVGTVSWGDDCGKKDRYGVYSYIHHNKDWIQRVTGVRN

[3] = target: T3, MASP-2 catalytic fragment (CCP1-CCP2-SP) (UniProt O00187 298-686); test: as above; details: both partners purified
T3 construct: MASP-2, active catalytic fragment containing the CCP1-CCP2-SP domains

[4] = target: T1, MASP-3 catalytic fragment (CCP1-CCP2-SP); test: equilibrium enzyme inhibition titration (residual activity; Green and Work); fixed protease incubated with increasing inhibitor to equilibrium; free enzyme read with 250 μM Z-L-Lys-SBzl + 500 μM DTNB; 20 mM HEPES, 145 mM NaCl, 5 mM CaCl2, 0.05% Triton X-100, pH 7.5; apparent KI corrected with KM where marked [a]; details: both partners purified
[5] = target: T2, MASP-1 catalytic fragment (CCP1-CCP2-SP); test: as above; details: both partners purified
[6] = target: T3, MASP-2 catalytic fragment (CCP1-CCP2-SP); test: as above; details: both partners purified
[7] = target: T3, MASP-2 catalytic fragment (CCP1-CCP2-SP); test: cell-based or functional assay
[8] = target: T4, C1s catalytic fragment (CCP1-CCP2-SP) (UniProt P09871 292-688); test: equilibrium enzyme inhibition titration (residual activity; Green and Work); fixed protease incubated with increasing ecotin to equilibrium; 250 μM Z-Gly-Arg-SBzl + 500 μM DTNB; 20 mM HEPES, 145 mM NaCl, 5 mM CaCl2, 0.05% Triton X-100, pH 7.5; apparent KI corrected with a KM from the literature; details: both partners purified
T4 construct: C1s, active catalytic fragment containing the CCP1-CCP2-SP domains
T4 sequence: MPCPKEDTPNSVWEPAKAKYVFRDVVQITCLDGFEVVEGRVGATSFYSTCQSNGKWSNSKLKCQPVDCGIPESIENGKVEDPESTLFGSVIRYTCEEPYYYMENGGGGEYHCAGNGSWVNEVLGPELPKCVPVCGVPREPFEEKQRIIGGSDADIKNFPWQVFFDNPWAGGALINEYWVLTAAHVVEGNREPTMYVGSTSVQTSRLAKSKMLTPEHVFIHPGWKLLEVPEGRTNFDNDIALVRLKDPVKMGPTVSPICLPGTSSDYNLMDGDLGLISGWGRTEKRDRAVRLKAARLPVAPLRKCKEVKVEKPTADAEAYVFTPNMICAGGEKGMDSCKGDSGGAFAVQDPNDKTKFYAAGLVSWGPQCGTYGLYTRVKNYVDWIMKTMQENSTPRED

factor D = target: T5, factor D (human, UniProt P00746 26-253); test: equilibrium enzyme inhibition titration (residual activity; Green and Work); fixed protease incubated with increasing inhibitor to equilibrium; free enzyme read with 250 μM Z-L-Lys-SBzl + 500 μM DTNB; 20 mM HEPES, 145 mM NaCl, 5 mM CaCl2, 0.05% Triton X-100, pH 7.5; apparent KI corrected with KM where marked [a]; details: both partners purified
T5 construct: the KI was measured on recombinant FD; that the recombinant FD was made from it is surmised; also called FD; recombinant FD

[9] = target: T1, MASP-3 catalytic fragment (CCP1-CCP2-SP); test: cell-based or functional assay
[10] = target: T1, MASP-3 catalytic fragment (CCP1-CCP2-SP); test: equilibrium enzyme inhibition titration (residual activity; Green and Work); tight-binding format: fixed MASP-3 incubated with increasing ecotin to equilibrium; 250 μM Z-L-Lys-SBzl + 40 μM Thiol Fluorescent Probe IV; 20 mM HEPES, 145 mM NaCl, 5 mM CaCl2, 0.05% Triton X-100, pH 7.5; details: both partners purified

T3 sequence (O00187 298-686): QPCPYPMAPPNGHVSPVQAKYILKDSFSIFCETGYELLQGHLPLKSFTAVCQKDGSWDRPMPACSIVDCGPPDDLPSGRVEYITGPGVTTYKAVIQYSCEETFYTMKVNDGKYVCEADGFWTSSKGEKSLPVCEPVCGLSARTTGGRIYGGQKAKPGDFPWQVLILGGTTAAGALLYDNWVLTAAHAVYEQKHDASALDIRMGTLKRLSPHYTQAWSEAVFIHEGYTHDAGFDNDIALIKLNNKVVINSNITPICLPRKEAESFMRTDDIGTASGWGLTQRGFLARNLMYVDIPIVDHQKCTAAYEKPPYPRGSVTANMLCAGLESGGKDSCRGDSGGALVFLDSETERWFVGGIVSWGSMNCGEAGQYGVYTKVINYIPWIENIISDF
T5 sequence (P00746 26-253): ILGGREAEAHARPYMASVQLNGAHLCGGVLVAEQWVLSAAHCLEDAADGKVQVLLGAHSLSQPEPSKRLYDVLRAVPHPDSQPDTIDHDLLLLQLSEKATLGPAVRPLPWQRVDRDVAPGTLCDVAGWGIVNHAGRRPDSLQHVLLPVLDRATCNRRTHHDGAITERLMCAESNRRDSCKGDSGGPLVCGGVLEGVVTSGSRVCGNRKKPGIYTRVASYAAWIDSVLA

B1: Y. pestis ecotin (natural protein)
chain: DTPTPLNQQQPLEKIAPYPQAEKGMSRQVIFLEPQKDESRFKVELLIGKTLNVDCNRHMLGGNLETRTLSGWGFDYLVMDKISQPASTMMACPEDSKPQVKFVTANLGDAAMQRYNSRLPIVVYVPQGVEVKYRIWEAGEDIRSAQVK
notes: also called Yersinia pestis ecotin ortholog
For B1, the Ki [1] was 800 nM, the Ki [2] was 35 µM and the Ki [3] was 2.2 nM.

B2: L. major ecotin (ISP2) (natural protein)
chain: MPAGMSDAAGKTLADFKAPYPEPTSQQRRYVIFLDPKGDSKELNDYKVELIPGRVEKVDGTNVYRMGGNIEERTIDGWGYPYYIVTLTTMSGTLMMPLGDAALKRPRFVAMNTKNLYRYNSRLPIVVYMPKDGELRYRIWTVKSTGSGTAKSTKAREM
notes: His6-tag cleaved off with TEV protease; also called Leishmania major ISP2 ortholog; not shown: His6, N-terminal, cleaved
B2 was tested, and the Ki [4] was 4.1 nM, the Ki [5] was 2700 nM and the Ki [6] was 8.8 nM.

B3: P. aeruginosa ecotin (natural protein)
chain: not shown
notes: also called Pseudomonas aeruginosa ecotin ortholog
In the case of B3, the Ki [4] is reported as 9.6 nM, the Ki [5] is reported as 34 nM and the Ki [6] is reported as 76 nM. The “IC50 of mannan-triggered LP-driven C3-deposition ELISA in 2% NHS (the most efficient LP inhibitor of the four orthologs)” value [7] was 84 to 190 nM.

B4: E. coli ecotin (natural protein)
chain: not shown
notes: also called recombinant E. coli ecotin
B4 showed a Ki [8] of 25.2 ± 4.45 µM, a Ki (factor D) of 4.06 µM and a Ki [5] of 4200 nM. The Ki [6] was 11 nM, the “half-life of Cy3-labelled pro-FD in NHS at 37 °C with 1 μM ecotin pre-incubated 10 min with the serum (3 hours without inhibitor)” value [9] was 10 h and the Ki [10] was 0.52 nM.
